Measurements published in the nanobody polyreactivity screen of Harvey et al. (2022).

Experiment: yeast display, Sf9 membrane polyspecificity reagent, FACS + sequencing; frameworks hold sequencing errors
In short: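 A nanobody's polyreactivity label depends on the gate it was sorted from. Yeast display cells were stained with 10% biotinylated, detergent-solubilized Sf9 membrane reagent for 1 hour at 4 °C, enriched on streptavidin microbeads and sorted by FACS. The low and high (top ~1%) gates were set on anti-HA fluorescence for expression and streptavidin fluorescence for reagent binding.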
In the case of “QFQLLESGGGLVQAGGSLRLSCAASGSIFTRNAIGWYRQAPGSERELVAAITSAGSTSYADSVKGRFTISRDNAKNTVYLQMNSQKPEDTAVYYCNTVPGRYRTFDYWGQGTQVTVSS”, the “polyreactivity (PSR sort gate)” value is reported as “high polyreactivity”. With “QVQLVESGGGLVQAGCSLRLSCAASGITFTYYAMGWYRQAPGKERELVAAINTGGNTNYADSVKGRFTISRDYAKNSVYLQMNSLKPEDTAVYYCAAYWYYYWWYDYWGQGTQVSVSS” the “polyreactivity (PSR sort gate)” value was “high polyreactivity”. For “QVQLVESGGGLVQAGGSLRLSCAASGRIFDYYAMGWYRQAPGKERELVAAINSGGSTYYADSVKGRFTISRDNAKNTVYLQMNSLKPEDTAVYYCNALRKSLRGGDYWGQGTQVTVSS”, the “polyreactivity (PSR sort gate)” value was “high polyreactivity”. In the case of “QVQLVESGGGLVQAGGSLRLSCAASGSTFGWYAMGWYRQAPGKETELDAAISWSGGSTYYADSVKGRFTISRDNAKNTVYLQMNSLKPEDTAVYYCARDTQYPYYFLMDYWGQGTQVTVSS”, the “polyreactivity (PSR sort gate)” value is reported as “low polyreactivity”. In the case of “QVQLVESGGGLVQAGGSLRLSCAASGFIFYRNAMGWYRQAPGKERELVAAISGSGGRTYYADSVKGRFTISRDNAKITVYLQMNSLNPEDTAVYYCNAGPLYRGEYDYWGQGTQVTVSS”, the “polyreactivity (PSR sort gate)” value is reported as “high polyreactivity”. With “QVQLVESGGGLVQAGGSLRLSSAATGSIIGFYAMGWYRQAPGKERELVAAITRGGGSTFYADSVKGRFTISRDNAKNTVYLQINSLKPEDTAVYYCAATVYRYHGPGYYYWGQGTQVTVSS” the “polyreactivity (PSR sort gate)” value was “high polyreactivity”. For “QVQLVESGGGLVQAGGSLRLSCAASGSTLVIYAMGWYRQAPVKEREFVAAIRCSPGRTYYADSVKGRFTISRDNAKNSVYLQMNSLKPEDTAVYYCAVEYQSWKGWWFDYWGQGTQLTVSS”, the “polyreactivity (PSR sort gate)” value was “high polyreactivity”. In the case of “QVQLVESGGGLVQAGGSLRLSCAASGRIFGTNAMGWYRQAPGKERELVAAISRSGGSTYYADSVKGRFTISRDNAKNTVYLQMNSLKPEDTAVYYCATDGRHTYYYWGQGTQVTVSS”, the “polyreactivity (PSR sort gate)” value is reported as “high polyreactivity”. In the case of “QVQLVESGGGLVQAGGSLRLSCAASGIIFPDYVMGWYRQAPGKERELVATITNDSSTTYADSVKGRFTISRDNAKNTVYLQMNSLKPEDTAVYYCAAPVDYQGDYWGQGTQVTVSS”, the “polyreactivity (PSR sort gate)” value is reported as “low polyreactivity”. With “QVQLVESGGGLVQAGGSLRLSCAASGFILRQNVMGWYRQAPGKERELVAAISRSGGRTYYADSVKGRFTISRDNAMNTVYFQMNSLKPEDTAVDYCNAGRYNYTDDYWGQGTQVTVSS” the “polyreactivity (PSR sort gate)” value was “high polyreactivity”. For “QVQLVESGGGLVQAGGSLRLSCAASGRTFSGYPMGWYRPAPGKERELVAAISWSGGSTYYADSVKGRFTISRDNAKNTVYLQMNSLKPEDTAVYYCAAYTYSFRANHDYWGQGTQVTVSS”, the “polyreactivity (PSR sort gate)” value was “high polyreactivity”. With “QVQLVESGGGLVQAGGSLRLSCAASGFTFDSYAMGWYRQAPGTERELVASISSSGSTNYADSVKGRFTISRDNAKNTVYLQMNSLKPEDTAVYYCAAESRYPFIYEYWGQGTQVTVSS” the “polyreactivity (PSR sort gate)” value was “low polyreactivity”. For “QVQLVESGGGLVQAGGSLRLSCAASGRTLNDYTMGWYRQAPGKERELVAAISSSGVRTYYADSVKGRFTISRDNAKNTVYLQMNSLKPEDTAVYYAKRAGYDRRWNYDYWGQGTQVTVSS”, the “polyreactivity (PSR sort gate)” value was “high polyreactivity”. In the case of “QVQLVESGGGFVQAGGSLRLSSAASGINFYRKTMGWYRQAPGKERELVASISRGGSTYYADSVKGRFTISRDNAKNTVYLQMNILKPEDTAVYYCSTSGQQYYSRNFDYWGQGTQVTVSS”, the “polyreactivity (PSR sort gate)” value is reported as “low polyreactivity”. For “QVQLVESGGGIVQAGGSLRLSCAASGIIFQTYAKGWYRQAPGKERELVAAISRSGGSTYYADSVKGRFTISRENSKNTVYLQMNSLKPEDTAVYYCAAYGYNVNWLKGIYWGQGTQVTVSS”, the “polyreactivity (PSR sort gate)” value was “high polyreactivity”. For “QVQLVESGGGLVQAGGSLRLSCAASGRIIYIYAMGWYRQAPGKERELVAAITASSGSTNYADSVKGRFTISRDNAKNTVYLQLNSLKPEDTAVYYCAAAPSRTLLRQSKYYYWGQGTQVTVSS”, the “polyreactivity (PSR sort gate)” value was “low polyreactivity”. In the case of “QVQLQESGRRPGAAGGSPRMSCAASGNIFWVAVMGRYRQAPGKERELVASIGFGCTTYYADSVKCRFTISRDNAKNTVYRQMISLKPEDTAVYYCAAPHYDWGELDYWGQGTQVPVSS”, the “polyreactivity (PSR sort gate)” value is reported as “low polyreactivity”. With “QVQLVESGGGLVQAGGSLRLSCAASGFTFGYYTMGWYRQAPGKERELVAAISSSGGRTYYADSVKGRFTISRDNAKNTVYLQMNSLKPEDTAVYYCAARARWAGLRYTRYYYWGQGTQVTVSS” the “polyreactivity (PSR sort gate)” value was “high polyreactivity”. In the case of “QVQLVESGGGLVQAGGSLRLSCAASGIILVRNAMGWYRQAPGKERELVAAISKSGGRTYYADSVKGRFTISRDNAKNTVYLQMNSLKPEDTAVYYCNVLTYHDFDYWGQGSQVTVSS”, the “polyreactivity (PSR sort gate)” value is reported as “high polyreactivity”. For “QVQLVESGGGLVQAGGSLRLSCAASGFIFTRYAMGWYRQAPGKERELVAGINRSGSRTYYADSVKGRFKISRDNAKNTVYLQMNSLKPEDTAVYYCATDTWYLYSTLDYWGQGTQVTVSS”, the “polyreactivity (PSR sort gate)” value was “high polyreactivity”. For “QVQLVESGGGLVQAGGSLRLSCAASGSIFSQYAMGCYREAPGKERELVAAISSSGDSTNYADSVKGRFTISRDNAKNTVYLQMNSLKPEDTGVYDCAADPYYFYIWYWWPSFDYWGQGTQVTVSS”, the “polyreactivity (PSR sort gate)” value was “low polyreactivity”. In the case of “QVQLVESGGGLVQAGGSLRLSCAASGSTFYLYAMGWYRQAPGKERELVAAISRGGTTYYADSVKGRFTISRDNAKNTVYLQMNSLKPEETAVYYCNARYTSRRSRRPYYYWGQGTQVTVSS”, the “polyreactivity (PSR sort gate)” value is reported as “high polyreactivity”. With “QVQLVESGGGLVQAGGSLRLSCAASGGTFQINAMGWYRQAPGKERELVAAISRSGGSTSYADSVKGRFTISRDNAKNTVYLQMNSLKPEDTAVYYCNKRVRATAWYDYWGQGTQVTVSS” the “polyreactivity (PSR sort gate)” value was “high polyreactivity”. In the case of “QVQLVESGGGLVQAGGSLRLSCAASGFTFLYNAMGWYRQAPGKERELVASINSGGSTNYADSVKGRFTISRDNAKNTVYLQMNSLKPEDTAVYYCAADKGPLQRGFDYWGQGTQVTVSS”, the “polyreactivity (PSR sort gate)” value is reported as “low polyreactivity”. With “QVQLVESGGGLVQAGGSLRLSCAASGSTSVGNAMGWYRQAPGKERELVAAISRIGGTTYYADSVKGRFTISRDNAKNTVYLQMNSLKPEDTAVYYCNVLKRYWSGRVDYWGQGTQVTVSS” the “polyreactivity (PSR sort gate)” value was “high polyreactivity”. For “QVQLVESGGGLVQAGGSLRLSCAASGFTFVPYAMGWYRQAPGKERELVAAISSRGDSTYYADSVKGRFTISRDNAKNTVYLQMNSLKPEDTAVYYCNARTTPHMDYWGQGTQVTVSS”, the “polyreactivity (PSR sort gate)” value was “low polyreactivity”. In the case of “QDQLVESGGGLVQAGGRLRLICAAAGLIFVSNAMGWYRQAPGKERELFASISWSGGSTYYADSVKGRFTISRDNAKNTVYLQMNSLKPEDTAVYYCAAAKYVTYLSIYYYWGQGTQVTVSS”, the “polyreactivity (PSR sort gate)” value is reported as “high polyreactivity”. In the case of “QVQLVESGGGLVQAGGSIRLSCAASGRTLPEYVMGWYRQAPGKERELVAAITTAGSTNYADSVKGRFTISRDNAKNTVYLQINCLKPEDTAVYYCAGTTRSRGFRDIDYWGQGTQVTVSS”, the “polyreactivity (PSR sort gate)” value is reported as “low polyreactivity”. For “QVQLVESGGGLVQAGGSLRLSCAATGRIFWVYAMGWYRQAPGKERELVAAINTSVGRTHYADSVKGRFTISRDNAKNTVYLQMNSLKPEDTAVYYCAADVKRYGWEYGYWGQGTQVTVSS”, the “polyreactivity (PSR sort gate)” value was “low polyreactivity”. In the case of “QVQLVESGGGLVQAGGSLRISCAASGITFFRNAMGWYRQAPGKERELVATITKSGGSTYYADSVKGRFTISRDNAKNTVYLQMNSLKPEDTAVYDCAAVRRYPVKYVAYDYWGQGTQVTVSS”, the “polyreactivity (PSR sort gate)” value is reported as “low polyreactivity”. In the case of “QVQLVESGGGLVQAGGSLRLSCAASGFIFSKYGMGWYRQAPGKERELVAAISIRGGNTYYADSVKGRFTISRDNAKNTVYLQMNSLKPEDTAVYYCNALSYGRYLNYRGGMDYWGQGTQVTVSS”, the “polyreactivity (PSR sort gate)” value is reported as “high polyreactivity”. With “QVQLVESGGGLVQAGGSLRLSSAASGRIIKIYAMGWYRQAPGKERELVAAISGRGGSTYYADSVKGRFTISRDNAKYTVYLQMNSLKPEDTAVYYCAAVGYGFSAYSTYDYWGQGTQVTVSS” the “polyreactivity (PSR sort gate)” value was “high polyreactivity”. With “QVQLVESGGGLVQAGGSLRLSCAASGSTFYVYAMGWYRQAPGKERELVAAISKRGGTTYYADSVKGRFTISRDNAKNTVYLQMNSLKPEDTAVYYCAADVRSPSAGYQGGYWGQGTQVTVSS” the “polyreactivity (PSR sort gate)” value was “high polyreactivity”. With “QVQLVESGGGLVQAGGSLRLSCAASGRTFSVYTMGWYRQAPGKERELVAVISSGGGTDYADSVKGRFTISRDNAKNTVYLQMNSLKPEDTAVYYCAAELRYYLYDVVYIVTYDYWGQGTQVTVSS” the “polyreactivity (PSR sort gate)” value was “low polyreactivity”. In the case of “QVQLVESGGGLVQAGGSLRLSCAASGSIFRYYVMGWYRQAPGKERELVASISYSVGRTYYADSVKGRFTISRDNAKNTVYLQMNSLKPEDTAVYYCAADRYWPYYSAYYTSYRMDYWGQGTQVTVSS”, the “polyreactivity (PSR sort gate)” value is reported as “high polyreactivity”. With “QVQLVESGGGLVQAGGSLRLSCAASGSTFSYYAMGWYRQAPGKERELVADISSGGSTNYADSVKGRFTISRDNAKNTVYLQMNSLKPEDTAVYYCNRRYSYYDGFDYWGQGTQVTLSS” the “polyreactivity (PSR sort gate)” value was “low polyreactivity”. In the case of “QVQLVESGGGLVQAGGSLRLSCAASGSTFSSNAMGWYRQAPGKERELVAAITGSGGSTYYADSVKGRFTISRDNAKNTVYLQMNSLKPEDTAVYYCAAKWYGITYKYEYWGQGTQVTVSS”, the “polyreactivity (PSR sort gate)” value is reported as “high polyreactivity”. For “QVQLVESGGGLVQAGGSLSLSCAASGSIFQKYTMGWYRQAPRKERELVAAITRSGGSTYYADSVKGRFTISRDNAKNTVYLQMNSLKAEDSAVYYCNKRYIPWAYDYWGQGTQVTVSS”, the “polyreactivity (PSR sort gate)” value was “high polyreactivity”. With “QVQLVESGGGLVQPGGSLRLSCAASGSIFYWYNMGWYRQAPGKERELVAAINDSGGSTHYADSVKGRFTISRDNEKNTFYLQMNSLKPEDTAVYYCAARKLSSYAYDYWGQGTQVTVSS” the “polyreactivity (PSR sort gate)” value was “low polyreactivity”. With “QVQLVESGGGLVQAGGSLRLSCAASGSTLRGNAMGWYRQAPGKEREFVAAISSSGGRTYYADSVKGRFTISRDNAKNTVYLQMNSLKPEDTAVYYCNADPYNYSRRYRLRKYGYWGQGTQVTVSS” the “polyreactivity (PSR sort gate)” value was “high polyreactivity”. In the case of “QVQLVESGGGLVQAGGSLRLSCAASGSTFSAYAMGWYRQAPGKERELVAAISRSGTRTYYADSVKGRFTISRDNAKNNVYLQMNSLKPEDTAVYYCARYAGRLSYRYEYWGQGTQVTVSS”, the “polyreactivity (PSR sort gate)” value is reported as “high polyreactivity”.
